Drawing on doi:10.1101/2021.02.07.430181, this text covers stoichiometry N for 4 substances.

What is called stoichiometry N is the number of molecules, sites or subunits per partner or assembly.

What all share (test): SAXS
Assay [1] deals with TrK13-WT (truncated and strep-tagged recombinant PfKelch13, wild type) (P. falciparum 3D7).
For assay [2], the target named is TrK13-A578S (truncated and strep-tagged recombinant PfKelch13 with A578S) (P. falciparum 3D7).
Assay [3] addresses TrK13-R539T (truncated and strep-tagged recombinant PfKelch13 with R539T) (P. falciparum 3D7).
The target of assay [4] is TrK13-C580Y (truncated and strep-tagged recombinant PfKelch13 with C580Y) (P. falciparum 3D7).

“TrK13-WT (truncated and strep-tagged recombinant PfKelch13, wild type) (domain or fragment)”: in assay [1], the stoichiometry N stood at 6.

Take “TrK13-A578S (truncated and strep-tagged recombinant PfKelch13 with A578S) (domain or fragment)”: the stoichiometry N in assay [2] came out at 6.

With “TrK13-R539T (truncated and strep-tagged recombinant PfKelch13 with R539T) (domain or fragment)”, the stoichiometry N in assay [3] turned out to be 6. As for “TrK13-C580Y (truncated and strep-tagged recombinant PfKelch13 with C580Y) (domain or fragment)”, in assay [4], the stoichiometry N turned out to be 6.
